According to paper PMC2710984 (International Journal of Peptide Research and Therapeutics, 2006):
Square brackets hold non-standard residues; d marks the D form. Ends that are not written are not given here. Gly(cPr) = N[C@H](C(=O)O)C1CC1; Chg = N[C@H](C(=O)O)C1CCCCC1; Pip = O=C(O)[C@@H]1CCCCN1; Abu = CC[C@H](N)C(=O)O; Aib = CC(C)(N)C(=O)O

Target: GST–BIR3 fusion protein (XIAP BIR3 domain)
Test: FMAT bead-based fluorescence competition assay

Binder A[Gly(cPr)]PF-NH2 [A–Cpg–PF (compound 18)] has an IC50 of over 1600 nM.

Binder [Chg]VPF-NH2 [Chx–VPF (compound 13)] has an IC50 of over 1600 nM.

With AV[Pip]F-NH2 [AV–Pip–F (compound 21)] the IC50 was 710 nM.

[Aib]VPF-NH2 [Dmg–VPF (compound 11)] gave an IC50 of over 1600 nM.

With [Abu]VPF-NH2 [Abu–VPF (compound 9)] the IC50 was 120 nM.

Work on [Gly(cPr)]VPF-NH2 [Cpg–VPF (compound 12)] yielded an IC50 of over 1600 nM.
